Source: the nanobody polyreactivity screen of Harvey et al. (2022)

Test: yeast display, Sf9 membrane polyspecificity reagent, FACS + sequencing; frameworks hold sequencing errors
In short: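 Using colony PCR, genes from sorted yeast display clones were amplified, then sequenced on MiSeq at 2 × 250 and filtered by CDR length. The clones had been stained with 10% biotinylated, detergent-solubilized Sf9 membrane reagent for 1 hour at 4 °C and sorted by FACS into low and high (top ~1%) gates on anti-HA and streptavidin fluorescence. Polyreactivity labels come from the gate of origin.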

| Sequence | polyreactivity (PSR sort gate) |
| --- | --- |
| QVQLVESGGGLVQAGGSLRLSCAASGRIFDYYAMGWYRQAPGKERELVAAINSGGSTYYADSVKGRFTISRDNAKNTVYLQMNSLKPEDTAVYYCAAKSFAPIVDYWGQGTQVTVSS | high polyreactivity |
| QVQLVESGGGLVQAGGSLRLSCAASGRIFDYYAMGWYRQAPGKERELVAAITRGGSTYYADSVKGRFTISRDNAKNTVYLQLNSLNPVDTEVYYCAASIGIRFIKYDYWGQGAQVTVSS | high polyreactivity |
| QVQLVESGGGLVQAGGSLRLSCAASGRIFDYYAMGWYRQAPGKERELVAAITSSGGSTYYADSVKGRFTISRDNAKNTVYLQMNSLKPEDTAVYYCAAGRKVQSRRYGYWGQGTQVTVSS | high polyreactivity |
| QVQLVESGGGLVQAGGSLRLSCAASGRIFDYYAMGWYRQAPGKERELVAVISGSGGTYYADSVKGRFTISRDNAKNTVYLQMNSLKPEDTAVYYCNAAVTSYPGYEYWGQGTQVTVSS | low polyreactivity |
| QVQLVESGGGLVQAGGSLRLSCAASGRIFDYYAMGWYRQAPGNERELVAAINSGGSTYYADSVKGRFTISRDNAKNTVSLQMNSLKPEDTAVYYCNALRKSLRGGDYWGQGTQVTVSS | high polyreactivity |
| QVQLVESGGGLVQAGGSLRLSCAASGRIFDYYTMGWSRQAPGKVRELVAAISSGGRTYYADSVKGRFTISRDNAKNTVYLQMNSLKPEDTAVYYCNALDTRHTYTYTGGKRFPYDHWGQGTQVTVSS | low polyreactivity |
| QVQLVESGGGLVQAGGSLRLSCAASGRIFDYYYMGWYRQAPGKERELVAAISNGGSTYYADSVKGRFTISRDNAKNTVYLQMNSLKPEDTAVYYGAAVISFSGYDYYYWGQGTQVTVSS | high polyreactivity |
| QVQLVESGGGLVQAGGSLRLSCAASGRIFEDYAMGWYRQAAGKERELVARISSGDSTNYADSVKGRFTISRDNAKNTVYLQMNSLKPVVTAVYYCAAEGGVQEFDYWGQGTQVTVSS | low polyreactivity |
| QVQLVESGGGLVQAGGSLRLSCAASGRIFEINARGWYRQAPGKERELVAAITRSGGSTYYADSVKGRFTISRDNAKNTVYFQMNSLTPEDTAVYYCAARGRYWYSRYYSWGQGTQVTVSS | high polyreactivity |
| QVQLVESGGGLVQAGGSLRLSCAASGRIFEPYAMGWYRQAPGKERELVAAITSGGSTDYADSVKGRFTISRDNAKNTVYLQMNSLKPEDTAVYYCAAETVWRLDYWGQGTQVTVSS | low polyreactivity |
| QVQLVESGGGLVQAGGSLRLSCAASGRIFERNAMGGDRQAPGKEREFVAASSWSGGSTHYADSVKGRFTSSRDNAKNTVYVQMNSLKPEDTAVYFCAARRRKAGRPSDRYYYWGQGTQVTVSS | high polyreactivity |
| QVQLVESGGGLVQAGGSLRLSCAASGRIFERYAMGWYRQAPGKERELVAGISISGGGTYYADSVKGRFTISRDNAKNTVYLEMNSLKPEDTAVYYCAATFPREDYGYWGQGTQVTVSS | low polyreactivity |
| QVQLVESGGGLVQAGGSLRLSCAASGRIFERYAMGWYRQAPGKERELVAGISISGGGTYYADSVKGRFTISRDNAKNTVYLQMNSLKPEDTAVYYCAATFPREEYGYWGQGTQVTVSS | low polyreactivity |
| QVQLVESGGGLVQAGGSLRLSCAASGRIFESYAMGWYRQAPGKERELVAAISSGGGTTYYADSVKGRFTISRDNAKNTVYLQMNSLKPEDTAVYYCAAGPWFYYWGQGTQVTVSS | low polyreactivity |
| QVQLVESGGGLVQAGGSLRLSCAASGRIFEWYAMGWYRQAPGKEREFVARITIGGRTYYADSVKGRFTISRDNAKNTVYFQMNSVKREDTAVYYCNAPYAWARPYIVSSTYDYWGQGTQVTVSS | high polyreactivity |
| QVQLVESGGGLVQAGGSLRLSCAASGRIFFHNAMGWYRQARGKERELVAAISYSGGSTYYADSVKGRFTIARDNAKNTVYLQMNSLKPEDTAVYYCNRYGNSYYFPPGPLYNYWGQGTQVTVSS | high polyreactivity |
| QVQLVESGGGLVQAGGSLRLSCAASGRIFFIYAMGWYRQAPGKERELVAAITWRGGRTYYADSVKGRFTISRDNAKNTVYLQMNSLKPEDTAVYYCAADYRDSYLFYYWGQGTQVTVSS | high polyreactivity |
